Measurements: patent US20160039867A1 (COMPLIX, published 2016)

Columns and labels:
[1] = molecular target: the molecule itself; experiment: analytical sedimentation equilibrium ultracentrifugation, 25000 rpm, about 1 mg/ml; self-association of the peptide
[2] = molecular target: the molecule itself; experiment: CD thermal unfolding curve (222 nm, 292 microM peptide) fitted to a monomer-trimer equilibrium; self-association of the peptide
Method: The said synthesized peptide was dissolved at a concentration of 292 microM in 20 mM phosphate buffer (PBS), 150 mM NaCl, pH 7.2. The CD spectra were measured between […], at 5° C. and 90° C. (FIG. 3). The spectrum at 5° C. was indicative of a high alpha-helical secondary structure content, in agreement with the expectation that all heptad regions, but not all of the flanking residues, would assemble as alpha-helical coiled coils.
In order to analyze whether the temperature-induced transition between helical and non-helical states was reversible, a forward (up) and backward (down) thermal scan was performed on the same sample, by recording the CD signal at […] as a function of temperature at a scanning rate of about 1 degree Celsius per minute (FIG. 4). It was observed that the up and down scans almost perfectly coincided, thereby confirming the quantitative unfolding and refolding of the peptides in the sample.
FIG. 5 represents fitting of a theoretic equation for trimeric association to experimental data. The experimental data are taken from FIG. 4, curve labeled ‘UP’. The theoretic equations used are listed supra. The fitted parameters (fitting results) are listed at the right in FIG. 5. ‘Transit. T’ corresponds to Tₜ, but is expressed in degrees Celsius. The parameter ‘delta Cₚ’ was kept constant at 3.0 kJ mol⁻¹ K⁻¹. […]

B1: Q2aI peptide Ac-MSIEEIQKQIAAIQKQIAAIQKQIYRMTP-NH2 (peptide)
peptide: Ac-MSIEEIQKQIAAIQKQIAAIQKQIYRMTP-NH2
notes: Synthetic designed coiled coil-forming peptide; also called all-isoleucine core peptide
B1: binds [1].

B2: peptide Ac-MSIEEIQKQQAAIQKQIAAIQKQIYRMTP-NH2 (reference artificial peptide of Example 3) (peptide)
peptide: Ac-MSIEEIQKQQAAIQKQIAAIQKQIYRMTP-NH2
notes: Synthetic designed coiled coil-forming peptide; also called said synthesized peptide
B2: binds [2].
